According to paper PMC10574006, “Two Different Isocitrate Dehydrogenases from Pseudomonas aeruginosa: Enzymology and Coenzyme-Evolutionary Implications” (International Journal of Molecular Sciences, 2023):

Key:
PaIDH1 = target: T1, PaIDH1 (Pseudomonas aeruginosa, UniProt Q9I0L5); experiment: effect on IDH activity, product formation; type: biochemical; details: read-out: Relative Activity (%) / PaIDH1
T1 construct: gene icd; full length, 418 aa, 6xHis-tag, pET-28b(+) NdeI/XhoI, E. coli Rosetta (DE3), 45 kDa subunit, homodimer
T1 sequence (Q9I0L5 1-418): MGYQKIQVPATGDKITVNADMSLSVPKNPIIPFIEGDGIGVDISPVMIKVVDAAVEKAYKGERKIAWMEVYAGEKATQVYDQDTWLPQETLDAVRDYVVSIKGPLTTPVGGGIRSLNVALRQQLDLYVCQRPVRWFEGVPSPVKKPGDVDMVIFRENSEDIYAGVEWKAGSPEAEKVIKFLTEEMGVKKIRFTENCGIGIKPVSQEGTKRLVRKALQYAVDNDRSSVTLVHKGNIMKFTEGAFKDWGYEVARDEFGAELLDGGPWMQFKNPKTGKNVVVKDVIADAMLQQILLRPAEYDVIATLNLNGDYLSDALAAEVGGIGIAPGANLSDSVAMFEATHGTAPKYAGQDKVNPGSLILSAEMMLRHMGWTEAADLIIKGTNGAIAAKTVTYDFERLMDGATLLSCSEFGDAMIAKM
Excerpt: effect on IDH activity, product formation on PaIDH1

PaIDH2 = target: T2, PaIDH2 (Pseudomonas aeruginosa, UniProt Q9I0L4); experiment: effect on IDH activity, product formation; type: biochemical; details: read-out: Relative Activity (%) / PaIDH2
T2 construct: gene idh; full length, 741 aa, 6xHis-tag, pET-28b(+) NdeI/XhoI, E. coli Rosetta (DE3), 81 kDa subunit, oligomer depends on salt (176-320 kDa)
T2 sequence (Q9I0L4 1-741): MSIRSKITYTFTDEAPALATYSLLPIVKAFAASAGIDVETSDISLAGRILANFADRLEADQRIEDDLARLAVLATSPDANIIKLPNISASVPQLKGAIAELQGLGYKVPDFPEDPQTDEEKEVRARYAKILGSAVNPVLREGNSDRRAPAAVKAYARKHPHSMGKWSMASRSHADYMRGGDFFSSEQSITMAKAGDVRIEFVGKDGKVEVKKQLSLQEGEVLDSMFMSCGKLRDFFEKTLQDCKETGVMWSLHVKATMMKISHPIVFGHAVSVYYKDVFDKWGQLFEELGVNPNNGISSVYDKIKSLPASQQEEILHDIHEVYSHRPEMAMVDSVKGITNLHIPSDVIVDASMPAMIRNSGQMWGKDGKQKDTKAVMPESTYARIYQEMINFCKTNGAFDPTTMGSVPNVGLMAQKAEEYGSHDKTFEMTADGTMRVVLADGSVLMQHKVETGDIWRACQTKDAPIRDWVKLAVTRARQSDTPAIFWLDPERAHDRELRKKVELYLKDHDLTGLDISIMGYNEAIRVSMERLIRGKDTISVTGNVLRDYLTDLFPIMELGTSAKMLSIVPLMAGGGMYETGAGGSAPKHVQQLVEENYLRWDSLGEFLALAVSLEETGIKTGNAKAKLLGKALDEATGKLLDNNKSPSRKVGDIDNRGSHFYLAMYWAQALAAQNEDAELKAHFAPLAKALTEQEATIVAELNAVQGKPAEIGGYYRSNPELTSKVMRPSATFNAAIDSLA
Excerpt: effect on IDH activity, product formation on PaIDH2

purified protein [1] = substrate: NC(=O)c1ccc[n+]([C@@H]2O[C@H](COP(=O)(O)OP(=O)(O)OC[C@H]3O[C@@H](n4cnc5c(N)ncnc54)[C@H](OP(=O)(O)O)[C@@H]3O)[C@@H](O)[C@H]2O)c1; experiment: purified protein; type: biochemical, Pseudomonas aeruginosa; details: 1 mM DL-isocitrate, 2 mM MnCl2, 50 mM Tris-HCl pH 7.5, 25 °C, varied: cofactor
purified protein [2] = substrate: O=C(O)CC(C(=O)O)C(O)C(=O)O; experiment: purified protein; type: biochemical, Pseudomonas aeruginosa; details: 500 μM NADP+, 2 mM MnCl2, 50 mM Tris-HCl pH 7.5, 25 °C

Molecule: O=C(O)CC(=O)C(=O)O [OAA]
- activity at 2000 µM (PaIDH1): 77.5 ± 4.56%

Molecule: Nc1ncnc2c1ncn2[C@@H]1O[C@H](COP(=O)(O)OP(=O)(O)O)[C@@H](O)[C@H]1O [ADP]
- activity at 2000 µM (PaIDH2): 82.7 ± 3.37%
- activity at 2000 µM (PaIDH1): 81.8 ± 3.55%

Molecule: Nc1ncnc2c1ncn2[C@@H]1O[C@H](COP(=O)(O)OP(=O)(O)OP(=O)(O)O)[C@@H](O)[C@H]1O [ATP]
- activity at 2000 µM (PaIDH2): 75.9 ± 5.92%

Molecule: O=C(O)CCC(=O)C(=O)O [α-KG]
- activity at 2000 µM (PaIDH2): 82.8 ± 5.65%
- activity at 2000 µM (PaIDH1): 79.5 ± 4.64%

B1: PaIDH1 (Pseudomonas aeruginosa PAO1) (protein)
chain: T1 sequence (Q9I0L5 1-418)
notes: full length, 418 aa, 6xHis-tag, pET-28b(+) NdeI/XhoI, E. coli Rosetta (DE3), 45 kDa subunit, homodimer
- Km (purified protein [1]): 20.00 ± 6.29 µM
- kcat (purified protein [1]): 105 ± 19.9 s⁻¹
- kcat/Km (purified protein [1]): 5.42e+06 ± 970000 M⁻¹ s⁻¹
- Km (purified protein [2]): 14.41 ± 1.82 µM
- kcat (purified protein [2]): 29.3 ± 10.9 s⁻¹
- kcat/Km (purified protein [2]): 2.1e+06 ± 930000 M⁻¹ s⁻¹

B2: PaIDH2 (Pseudomonas aeruginosa PAO1) (protein)
chain: T2 sequence (Q9I0L4 1-741)
notes: full length, 741 aa, 6xHis-tag, pET-28b(+) NdeI/XhoI, E. coli Rosetta (DE3), 81 kDa subunit, oligomer depends on salt (176-320 kDa)
- Km (purified protein [1]): 30.68 ± 2.73 µM
- kcat (purified protein [1]): 134 ± 17 s⁻¹
- kcat/Km (purified protein [1]): 4.42e+06 ± 1.13e+06 M⁻¹ s⁻¹
- Km (purified protein [2]): 23.61 ± 1.21 µM
- kcat (purified protein [2]): 171 ± 6.77 s⁻¹
- kcat/Km (purified protein [2]): 7.26e+06 ± 130000 M⁻¹ s⁻¹
